Target: cytosolic domain of human Fis1 (Fis1_ΔTM, residues 1−123) (human, UniProt Q9Y3D6 1-123)
Experiment: SPR

Kd: 156 µM
B1: Bap31_CC2 D224K (domain or fragment)
chain: LDVGNAEVKLEEENRSLKADLQKLKDELASTKQKLEKAENQVLAMRKQSEGLTKEYKRLLEEHAKLQAAVDGPMDKKEE

Reference: paper PMC12328794 (2025)
